Assay results: US10765761B2, “Nucleic acid condensing peptide, nucleic acid condensing peptide set, nucleic acid delivery carrier, nucleic acid delivery method, cell production method, cell detection method and kit” (KABUSHIKI KAISHA TOSHIBA, priority 2016, dated 2020)

Experiments:
plasmid vector (pDNA) [1] = test: Average particle diameter and Zeta potential of peptide-nucleic-acid complexes (zetasizer), Example 1; assay type: physicochemical
Experimental: The condensability of the nucleic acid by the peptide of the embodiment and the potential of the peptide-nucleic-acid complex were evaluated.
The peptides were each dissolved in 10 mM of HEPES (pH: 5.3) to prepare several peptide solutions having different peptide concentrations.
For the protamine, three peptide solutions were prepared to have peptide concentrations of: (1) 2.1 mg/ml, (2) 2.4 mg/ml and (3) 2.7 mg/ml. For the mHP-4, four peptide solutions were prepared to have peptide concentrations of: (4) 1.8 mg/ml, (5) 2.1 mg/ml, (6) 2.4 mg/ml and (7) 2.7 mg/ml. For the mHP-1, three peptide solutions were prepared to have peptide concentrations of: (8) 2.1 mg/ml, (9) 2.4 mg/ml and (10) 2.7 mg/ml. For the mHP-2, five peptide solutions were prepared to have peptide concentrations of: (11) 1.2 mg/ml, (12) 1.5 mg/ml, (13) 2.1 mg/ml, (14) 2.4 mg/ml and (15) 2.7 mg/ml. For the mHP-3, three peptide solutions were prepared to have peptide concentrations of: (16) 2.1 mg/ml, (17) 2.4 mg/ml and (18) 2.7 mg/ml. Further, plasmid vector (pDNA) was diluted with purified water to prepare a nucleic acid solution having a pDNA concentration of 3.0 mg/ml.
18 sets of nucleic acid solutions (90 μL) put in tubes were prepared and the peptide solutions (1) to (18) (90 μL) described above were dropped respectively therein and mixed while stirring each, to condense the nucleic acids. Thus, the peptide-nucleic-acid complexes were obtained. Then, the mixtures were each diluted with purified water to 25-fold to produce peptide-nucleic-acid solutions. Further, as references, samples containing only each respective peptide were also prepared without adding the nucleic acid solutions thereto.
The average particle diameter and Zeta potential of each of the peptide-nucleic-acid complexes were investigated using the peptide-nucleic-acid solutions. The average particle diameter and Zeta potential were measured using a zetasizer.

plasmid vector (pDNA) [2] = test: Average particle diameter, polydispersity index and Zeta potential of peptide-nucleic-acid complexes, Example 6; assay type: physicochemical; conditions: peptide-nucleic-acid complex, total peptide 0.24 mg/ml, pDNA 0.15 mg/ml
Experimental: Each of the peptides was dissolved into 10 mM-HEPES (pH: 5.4) to prepare several peptide solutions having different peptide concentrations.
For the mHP-1, one peptide solution was prepared to have a peptide concentration of (1) 0.24 mg/ml. For the mHP-2, one peptide solution was prepared to have a peptide concentration of (2) 0.24 mg/ml. For the mHP-1 and mHP-2, five peptide solutions were prepared to have a total peptide concentration of 0.24 mg/ml and mixture ratios between mHP-1 and mHP-2 of: (3) 1:1, (4) 1:3, (5) 1:5, (6) 1:7 and (7) 1:9. Meanwhile, plasmid vector (pDNA) was diluted with purified water to prepare a nucleic acid solution having a pDNA concentration of 0.15 mg/ml.
The peptide solutions (1) to (7) (100 μL) were prepared in tubes and the nucleic acid solution (200 μL) was dropped and mixed thereto while stirring each solution to condense the nucleic acids, and thus peptide-nucleic-acid complexes were obtained.
The peptide-nucleic-acid complexes were investigated in terms of average particle diameter, polydispersity index and Zeta potential using the respective peptide-nucleic-acid solutions. The average particle diameter, polydispersity index and Zeta potential were measured using a zetasizer.

[3] = Average particle diameter, polydispersity index and Zeta potential of liposome (Complex), Example 8; assay type: physicochemical
Experimental: COATSOME/SS-20 (Nippon Oil & Fats), DOPE, cholesterol and DMG-PEG were dissolved into ethanol at a molar ratio of 5:3:1:0.3, to obtain a lipid solution. Five sets of 50 μL of lipid solutions put into tubes were prepared, and 50 μL of peptide-nucleic-acid solutions (1) to (4) and (7) of Example 6 were dropped thereto while stirring each lipid solution, thereby forming liposomes. 400 μL of 10 mM-HEPES (pH: 5.4) was added to each of the liposome solutions to make a total amount of 500 μL (this liposome solution will be referred to as “Complex” hereinafter).
The average particle diameter, polydispersity index and Zeta potential of liposome were investigated using the Complex. The average particle diameter, polydispersity index and Zeta potential were measured using a zetasizer.

plasmid vector (pDNA) [4] = test: Gel retardation assay: condensability and dissociation with M9, Example 11; assay type: binding
Experimental: Each of the peptides was dissolved in 10 mM-HEPES (pH: 5.4) and several peptide solutions having different peptide concentrations were prepared.
For M9, one peptide solution was prepared to have a peptide concentration of: (1) 0.24 mg/ml. For mHP-1 and mHP-2, peptide solutions were prepared to have a peptide concentration of 0.24 mg/ml and a mixture ratio between mHP-1 and mHP-2 of 1:3, and 1 μL of M9 was added to one to prepare a peptide solution (2), and M9 was not added to one to prepare a peptide solution (3). Moreover, the plasmid vector (pDNA) was diluted with purified water to prepare a nucleic acid solution having a pDNA concentration of 0.15 mg/ml. […]
As samples for the condensability evaluation, five sets of 5.5 μL of 10 mM-HEPES (pH: 5.4) were prepared, and 4.5 μL of the respective peptide-nucleic-acid solutions described above were added to prepare mixtures. […] After the electrophoresis, the nucleic acid dyed with ethidium bromide was visualized by UV irradiation, and the nucleic acids condensed by the peptide and the nucleic acid dissociating with the peptide and moving into the gel were detected.
FIG. 15 is a photograph showing the agarose gel subjected to UV irradiation. […] When an integrated band with a large molecular weight, which strongly shines is observed in the left lane, it was evaluated as a high condensability.

[5] = Average particle diameter and Zeta potential of liposome (zetasizer), Example 3; assay type: physicochemical
Experimental: (§1) COATSOME/SS-20 (Nippon Oil & Fats), DOPE, cholesterol and DMG-PEG were dissolved into ethanol at a molar ratio of 5:3:1:0.3, to obtain a lipid solution. Two sets of lipid solutions (0.5 ml) put into tubes were prepared, and 0.5 ml of peptide-nucleic-acid solutions (8) (mHP-1) and (16) (mHP-3) of Example 1 were dropped thereto while stirring each lipid solution, thereby forming liposomes. 9 ml of 10 mM-HEPES (pH: 5.3) was added to each of the liposome solutions to make a total amount of 10 ml (each liposome solution will be referred to as “Complex” hereinafter). Further, on an assumption that the liposome is taken into an organism, and liposome solutions (which will be referred to as “HEPES replacement”) in which ethanol, which is the solvent of Complex is substituted by HEPES were produced. The HEPES replacements were produced by condensing each solution of Complex to 1.5 ml with an ultrafiltration film for 300 kDa, adding 8.5 ml of 100 mM-HEPES (pH: 7.4) to each, performing ultrafiltration, thereafter substituting the solvent with 10 mM-HEPES (pH: 7.4), and finally condensing to 0.5 ml. Further, the HEPES replacements were filtered for sterilization with a filter with a pore diameter of 0.45 μm to prepare solutions (which will be referred to as “0.45 μm” hereinafter).
(§2) The “peptide-nucleic-acid solution”, “HEPES substituent” and “0.45 micrometer”, each of which contain the protamine, mHP-1 or mHP-3 prepared as above were examined in terms of average particle diameter of liposome, Zeta potential and amount of encapsulation of plasmid. The average particle diameter and Zeta potential were measured using a zetasizer. The amount of encapsulation of plasmid was measured using a Quant-iT PicoGreen (registered trademark) dsDNA assay kit.

plasmid = test: Amount of encapsulation of plasmid in liposome (Quant-iT PicoGreen dsDNA assay kit), Example 3; assay type: physicochemical
Experimental: as §1, §2

[6] = pDNA/peptide 1/0.4 (peptide conc. 1.2 mg/mL)
[7] = pDNA/peptide 1/0.5 (peptide conc. 1.5 mg/mL)
[8] = pDNA/peptide 1/0.7 (peptide conc. 2.1 mg/mL)
[9] = pDNA/peptide 1/0.8 (peptide conc. 2.4 mg/mL)
[10] = pDNA/peptide 1/0.9 (peptide conc. 2.7 mg/mL)
[11] = peptide solely, no nucleic acid (Reference)
[12] = pDNA/peptide 1/0.6 (peptide conc. 1.8 mg/mL)

Sequence | Average particle diameter (zAve) (plasmid vector (pDNA) [1]; [8]) [nm] | Zeta potential (plasmid vector (pDNA) [1]; [8]) [mV] | Average particle diameter (zAve) (plasmid vector (pDNA) [1]; [9]) [nm] | Zeta potential (plasmid vector (pDNA) [1]; [9]) [mV] | Average particle diameter (zAve) (plasmid vector (pDNA) [1]; [10]) [nm] | Zeta potential (plasmid vector (pDNA) [1]; [10]) [mV] | Average particle diameter (zAve) (plasmid vector (pDNA) [1]; [11]) [nm] | Zeta potential (plasmid vector (pDNA) [1]; [11]) [mV] | also measured
RRRRRRYYRQRQRGGRRRRRR (Comperative example of nucleic acid condensing peptide) [mHP-2] | 184.0 | 27.3 | 159.0 | 21.6 | 158.6 | 34.2 | 321.0 | 50.5 | Average particle diameter (zAve) (plasmid vector (pDNA) [1]; [6]): 141.8 nm; Zeta potential (plasmid vector (pDNA) [1]; [6]): −27.7 mV; Average particle diameter (zAve) (plasmid vector (pDNA) [1]; [7]): 139.8 nm; Zeta potential (plasmid vector (pDNA) [1]; [7]): −17.7 mV; Average particle diameter (zAve) (plasmid vector (pDNA) [2]): 169.1 nm; Polydispersity index (PDI) (plasmid vector (pDNA) [2]): 0.285; Zeta potential (plasmid vector (pDNA) [2]): −34.1 mV; Average particle diameter (zAve) [3]: 250.0 nm; Polydispersity index (PDI) [3]: 0.092; Zeta potential [3]: 36.2 mV
GNQSSNFGPMKGGNFGGRSSGPYGGGGQYFAKPRNQGGYGGGKCRGKVPGKYGKG [M9, third nucleic acid condensing peptide comprising M9 domain of hnRNP A1] |  |  |  |  |  |  |  |  | influence on condensability or dissociation of nucleic acid by mixed mHP-1 and mHP-2 peptide solution (plasmid vector (pDNA) [4]; M9 added to mHP-1:mHP-2 1:3 peptide solution (FIG. 15)): does not influence the condensability or dissociation; nucleic acid condensability (plasmid vector (pDNA) [4]; M9 used solely, 0.24 mg/ml, 0.8% agarose gel (FIG. 15)): does not exhibit nucleic acid condensability
PRRRRSSSRPIRRRRPRRASRRRRRRGGRRRR (salmon) [Protamine sequence, reference compound] | 136.5 | −27.8 | 135.9 | −24.9 | 139.6 | −29.5 | 711.3 | 28.1 | Average particle diameter (zAve) ([5]; Peptide-nucleic acid solution): 167.8 nm; Zeta potential ([5]; Peptide-nucleic acid solution): −41.30 mV; Average particle diameter (zAve) ([5]; liposome, 0.45 μm filtered): 235.5 nm; Zeta potential ([5]; liposome, 0.45 μm filtered): −0.72 mV; Average particle diameter (zAve) ([5]; liposome, HEPES substitution): 392.2 nm; Zeta potential ([5]; liposome, HEPES substitution): −0.47 mV; Plasmid inclusion amount (plasmid; 0.45 μm filtered): 7.97 µg/mL; Plasmid inclusion amount (plasmid; HEPES substitution): 12.68 µg/mL
RRRRRRGGRRRRRR (Comperative example of nucleic acid condensing peptide) [mHP-4] | 141.2 | −30.7 | 323.4 | 28.6 | 212.2 | 33.0 | 1083.0 | 39.7 | Average particle diameter (zAve) (plasmid vector (pDNA) [1]; [12]): 130.9 nm; Zeta potential (plasmid vector (pDNA) [1]; [12]): −23.8 mV
